# B1: murinized anti-human Fn14 antibody 4-1m (antibody, mouse IgG2a, kappa, V domains shown)
# VH: DVQLQESGPGLVKPSQSLSLTCAVYGGSFSGYYWSWIRQFPGNKLEWMGEINHRGSTNSNPSLKSRISITVDTSKNQFFLQLNSVTTEDTATYYCAREGISGSMGIYDYSGMDVWGQGTLVTVSA
# VL: DIVMSQSPSSLAVSVGEKVTMSCKSRQSILYSSNNKNYLTWYQQKPGQSPKLLIYWASTRESGVPDRFTGSGSGTDFTLTISSVKAEDLAVYYCQQYYSTPYTFGSGTKLEIKR
# notes: Framework regions of 4-1h partially substituted with mouse FR; mouse kappa light chain; also called murinized antibody of 4-1h
# B2: fully humanized anti-human Fn14 antibody 4-1h (antibody, human IgG1, kappa, L234A L235A, V domains shown)
# VH: QVQLQQWGAGLLKPSETLSLTCAVYGGSFSGYYWSWIRQPPGKGLEWIGEINHRGSTNSNPSLKSRDTISVDTSKNQFSLRLRSVTAADTAVYYCAREGISGSMGIYDYSGMDVWGQGTTVTVSS
# VL: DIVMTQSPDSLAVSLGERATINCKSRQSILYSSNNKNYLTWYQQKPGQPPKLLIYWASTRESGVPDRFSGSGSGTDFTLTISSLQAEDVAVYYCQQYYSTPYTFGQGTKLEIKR
# modifications: most of the purified antibodies had pyroglutamylation at the N terminal of the heavy chain and deletion of lysine at the C terminal (Example 5)
# notes: human kappa light chain; Expressed in CHO-K1SV cells; also called fully humanized antibody of 4-1
# Experiments:
# [1] = molecular target: T1, human Fn14-human Fc fusion protein (human, UniProt Q9NP84 28-79); experiment: ELISA, Fn14-Fc fusion coated on plate, HRP anti-mouse kappa detection
# T1 construct: range 1-79; Purified from CHO-K1SV culture supernatant; coated on the ELISA plate
# T1 sequence: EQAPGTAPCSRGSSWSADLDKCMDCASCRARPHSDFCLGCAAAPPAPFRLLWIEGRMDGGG
# Description: (§1) Binding activities of 4-1h and 4-1m acquired in Example 4 to a Fn14 protein were evaluated. The human Fn14-human Fc fusion protein and the mouse Fn14-mouse Fc fusion protein acquired in Example 1 were diluted in phosphate buffered saline (PBS) at 1 μg/mL and added to a MaxiSorp 384-well transparent plate (Nunc, 464718) at 15 μL/well. Incubation was performed overnight at 4° C. for Immobilization. On the next day, the solid phase liquid was removed, and washing was performed with a 0.05% Tween-20-containing Tris-buffered saline (TBS-T). PBS containing 20% Blocking One (Nacalai tesque, Inc., 03953-95) was added thereto at […]. The resultant was left at room temperature for 1 hour, and then washed with TBS-T. A dilution series of 4-1h or 4-1m acquired in Example 4 was prepared by dilution in 12 steps with a 4-fold common ratio from a maximum concentration of 30 μg/mL using TBS-T containing 5% Blocking One (hereinafter, referred to as a diluent), and added at 20 μL/well. […] Then, the reaction was stopped by adding a 2M sulfuric acid, and the absorbance at 450 nm was measured with SpectraMax Paradigm (Molecular Devices, LLC). The test was performed in duplicate, and EC₅₀ values were calculated by 4-parameter logistic curve fitting.
# [2] = molecular target: T2, mouse Fn14-mouse Fc fusion protein (mouse, UniProt Q9CR75 28-75); experiment: as above
# T2 construct: range 1-75; Fn14 part cloned via EcoRI/EcoRV into the multicloning site of pFUSE-mIgG2B-Fc1; not shown: mouse Fc region: mIgG2B-Fc region of vector pFUSE-mIgG2B-Fc1 (InvivoGen)
# Description: as §1
# [3] = molecular target: T3, human Fn14 on cells (NFkB/HEK293 reporter cells, A375 cells) (human, UniProt Q9NP84 28-129); experiment: cell-based or functional assay
# T3 sequence (looked up): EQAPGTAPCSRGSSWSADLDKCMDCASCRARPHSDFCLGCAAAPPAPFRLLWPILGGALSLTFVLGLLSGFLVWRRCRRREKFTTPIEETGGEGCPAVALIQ
# [4] = molecular target: T1, human Fn14-human Fc fusion protein; experiment: ELISA, Fn14-Fc fusion coated on plate, HRP anti-human kappa detection
# Description: as §1
# [5] = molecular target: T2, mouse Fn14-mouse Fc fusion protein; experiment: as above
# Description: as §1
# T2 sequence (Q9CR75 28-75 limits assumed): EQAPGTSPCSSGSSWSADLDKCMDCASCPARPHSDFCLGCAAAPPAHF
binder,measurement,setting,value
B1,EC50,[1],0.0182 µg/mL
same,EC50,[2],0.0165 µg/mL
B2,"IC50 (ng/mL), inhibition of Tweak-induced NFkB activation (luciferase reporter, NFkB/HEK293 cells), geometric mean of three trials",[3],41.5 ng/mL
same,EC50,[4],0.0304 µg/mL
same,EC50,[5],0.0232 µg/mL

# — patent publication US20210388096A1 (Astellas, published 2021)
